Results published in publication PMC11260360 (Nature structural & molecular biology, 2023).

Target: DENND10 (recombinant, pull-down) (human, UniProt Q8TCE6 1-357)
Assay: pull-down

DENND10 (recombinant, pull-down), sequence (Q8TCE6 whole entry): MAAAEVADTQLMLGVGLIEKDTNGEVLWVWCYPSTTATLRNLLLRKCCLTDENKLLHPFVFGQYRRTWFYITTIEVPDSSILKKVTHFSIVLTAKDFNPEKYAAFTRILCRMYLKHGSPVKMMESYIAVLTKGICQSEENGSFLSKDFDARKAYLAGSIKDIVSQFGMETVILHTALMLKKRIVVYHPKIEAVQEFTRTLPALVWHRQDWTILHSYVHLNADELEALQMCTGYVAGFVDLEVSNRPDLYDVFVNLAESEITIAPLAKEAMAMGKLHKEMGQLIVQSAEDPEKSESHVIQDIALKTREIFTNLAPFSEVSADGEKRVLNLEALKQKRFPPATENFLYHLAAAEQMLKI

B1: MBP-tagged CCDC22-CCDC93 DBD (complex, human)
chain 1: GAGAKTGAPKGSRFTHSEKFTFHLEPQAQATQVSDVPATSRRPEQVTWAAQEQELESLREQLEGVNRSIEEVEADMKTLGVSFVQAESECRHSKLSTAEREQALRLKSRAVELLPDGTANLAKLQLVVENSAQRVIHLAGQWEKHRVPLLAEYRHLRKLQDCRELES
chain 2: SPEKLGTSQLHRRKVISLNKQIAQKTKHLEELRASHTSLQARYNEAKKTLTELKTYSEKLDKEQAALEKIESKADPSILQNLRALVAMNENLKSQEQEFKAHCREEMTRLQQEIENLKAERAPRGDEKT
B1: binds.

B2: MBP-tagged CCDC22-CCDC93 DBD, CCDC93 E410R (complex, human)
chain 1: GAGAKTGAPKGSRFTHSEKFTFHLEPQAQATQVSDVPATSRRPEQVTWAAQEQELESLREQLEGVNRSIEEVEADMKTLGVSFVQAESECRHSKLSTAEREQALRLKSRAVELLPDGTANLAKLQLVVENSAQRVIHLAGQWEKHRVPLLAEYRHLRKLQDCRELES
chain 2: SPEKLGTSQLHRRKVISLNKQIAQKTKHLEELRASHTSLQARYNEAKKTLTELKTYSEKLDKEQAALEKIESKADPSILQNLRALVAMNENLKSQEQEFKAHCRERMTRLQQEIENLKAERAPRGDEKT
B2: binds.
